Results from article PMC2897852 (PLoS ONE, 2010).

Biological target: T1, His-ClpX (M. tuberculosis ClpX, pRD21) (M. tuberculosis, UniProt P9WPB9 1-426)
T1 construct: also called his-clpXTB; recombinant His-ClpX fusion protein
Assay: pull-down
Settings: both partners purified

T1 sequence (P9WPB9 whole entry, the tested form may be a part): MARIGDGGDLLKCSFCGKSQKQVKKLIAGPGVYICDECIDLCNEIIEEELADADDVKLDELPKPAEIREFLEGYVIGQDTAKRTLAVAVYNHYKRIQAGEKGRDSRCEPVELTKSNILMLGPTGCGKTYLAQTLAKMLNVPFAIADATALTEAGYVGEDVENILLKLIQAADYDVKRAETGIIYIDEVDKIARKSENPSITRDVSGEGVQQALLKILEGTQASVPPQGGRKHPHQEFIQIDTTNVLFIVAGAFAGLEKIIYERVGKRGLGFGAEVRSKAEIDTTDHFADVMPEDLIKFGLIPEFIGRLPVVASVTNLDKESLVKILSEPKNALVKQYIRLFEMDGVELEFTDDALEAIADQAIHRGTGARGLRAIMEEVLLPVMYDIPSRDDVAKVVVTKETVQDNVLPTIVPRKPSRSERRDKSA

| Binder | binding result |
| --- | --- |
| tag-free FtsZ (M. tuberculosis FtsZ, polyhistidine tag cleaved with thrombin) (natural protein, also called FtsZTB) MTPPHNYLAVIKVVGIGGGGVNAVNRMIEQGLKGVEFIAINTDAQALLMSDADVKLDVGRDSTRGLGAGADPEVGRKAAEDAKDEIEELLRGADMVFVTAGEGGGTGTGGAPVVASIARKLGALTVGVVTRPFSFEGKRRSNQAENGIAALRESCDTLIVIPNDRLLQMGDAAVSLMDAFRSADEVLLNGVQGITDLITTPGLINVDFADVKGIMSGAGTALMGIGSARGEGRSLKAAEIAINSPLLEASMEGAQGVLMSIAGGSDLGLFEINEAASLVQDAAHPDANIIFGTVIDDSLGDEVRVTVIAAGFDVSGPGRKPVMGETGGAHRIESAKAGKLTSTLFEPVDAVSVPLHTNGATLSIGGDDDDVDVPPFMRR | binds |
| FtsZ D210G, tag-free (pRR7) (natural protein) MTPPHNYLAVIKVVGIGGGGVNAVNRMIEQGLKGVEFIAINTDAQALLMSDADVKLDVGRDSTRGLGAGADPEVGRKAAEDAKDEIEELLRGADMVFVTAGEGGGTGTGGAPVVASIARKLGALTVGVVTRPFSFEGKRRSNQAENGIAALRESCDTLIVIPNDRLLQMGDAAVSLMDAFRSADEVLLNGVQGITDLITTPGLINVDFAGVKGIMSGAGTALMGIGSARGEGRSLKAAEIAINSPLLEASMEGAQGVLMSIAGGSDLGLFEINEAASLVQDAAHPDANIIFGTVIDDSLGDEVRVTVIAAGFDVSGPGRKPVMGETGGAHRIESAKAGKLTSTLFEPVDAVSVPLHTNGATLSIGGDDDDVDVPPFMRR | binds |
| FtsZ G103S, tag-free (pRR3) (natural protein) MTPPHNYLAVIKVVGIGGGGVNAVNRMIEQGLKGVEFIAINTDAQALLMSDADVKLDVGRDSTRGLGAGADPEVGRKAAEDAKDEIEELLRGADMVFVTAGESGGTGTGGAPVVASIARKLGALTVGVVTRPFSFEGKRRSNQAENGIAALRESCDTLIVIPNDRLLQMGDAAVSLMDAFRSADEVLLNGVQGITDLITTPGLINVDFADVKGIMSGAGTALMGIGSARGEGRSLKAAEIAINSPLLEASMEGAQGVLMSIAGGSDLGLFEINEAASLVQDAAHPDANIIFGTVIDDSLGDEVRVTVIAAGFDVSGPGRKPVMGETGGAHRIESAKAGKLTSTLFEPVDAVSVPLHTNGATLSIGGDDDDVDVPPFMRR | binds |
